Assay results: the supplement of paper PMC12783771
± gives the standard deviation of the averaged measurements.

B1: library; numbered along this chain (parent)
chain: MNIQIGELAKRTACPVVTIRFYEQEGLLPPPGRSRGNFRLYGEEHVERLQFIRHCRSLDMPLSDVRTLLSYRKRPDQDCGEVNMLLDEHIRQVESRIGALLELKHHLVELREACSGARPAQSCGILQGLSDCVCDTRGTTAHPSD

What was measured:
[1] = variants of: B1; assay: sfGFP reporter fluorescence (15 h) (µM FITC); higher = higher leak; details: library round: Round 0; ligand: none
Summary of the method: (§1)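 With 1 µM lead chloride, 30 µM zinc acetate or no metal present, 1 μL Echo-assembled reactions were incubated 15 hr at 30 °C. They contained BL21 Star (DE3) PANOx-SP extract, 30 μg/mL GamS, the pPbrR-sfGFP reporter plasmid and PCR-made linear PbrR templates Echo-normalized to 5 nM. Endpoint sfGFP fluorescence was read on a Synergy Neo2 at 485/528 nm against FITC standards in 50 mM sodium borate pH 8.5. Results are expressed as µM FITC.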

[2] = variants of: B1; assay: sfGFP reporter fluorescence (15 h) (µM FITC); higher = stronger transcriptional activation; details: library round: Round 0
Summary of the method: as §1

Row | Variant | sfGFP reporter fluorescence [1] | sfGFP reporter fluorescence ([2]; ligand: 1 µM Pb) | sfGFP reporter fluorescence ([2]; ligand: 30 µM Zn)
1 | I125E | 0.0597 ± 0.0026 | 0.0581 ± 0.00078 | 0.0557 ± 0.0031
2 | I125L | 0.055 ± 0.001 | 0.05717 ± 0.00052 | 0.05552 ± 0.00026
3 | I125N | 0.0581 ± 0.00078 | 0.0581 ± 0.00078 | 0.055 ± 0.0015
4 | I125M | 0.05992 ± 0.00026 | 0.0579 ± 0.001 | 0.05571 ± 0.00052
5 | I125C | 0.0596 ± 0.00078 | 0.05901 ± 0.00052 | 0.0568 ± 0.0047
6 | I125F | 0.0553 ± 0.001 | 0.0579 ± 0.0021 | 0.05259 ± 0.00026
7 | I125V | 0.0583 | 0.0627 | 0.183 ± 0.0036
8 | I125Y | 0.059 ± 0.0021 | 0.0588 ± 0.0023 | 0.0552 ± 0.0029
9 | I125P | 0.0559 ± 0.00078 | 0.05791 ± 0.00052 | 0.05351 ± 0.00052
10 | I125Q | 0.0588 ± 0.00078 | 0.0597 ± 0.0015 | 0.055 ± 0.0021
11 | I125G | 0.0546 | 0.0559 ± 0.00078 | 0.0504 ± 0.0029
12 | I125A | 0.0572 ± 0.0042 | 0.0553 ± 0.0021 | 0.0585 ± 0.0023
13 | R118A | 0.0676 ± 0.0018 | 0.0665 ± 0.00078 | 0.168 ± 0.026
14 | S115A | 0.0599 ± 0.00078 | 0.0663 ± 0.0047 | 0.478 ± 0.14
15 | C123F | 0.0564 ± 0.0015 | 0.0577 ± 0.00078 | 0.0528 ± 0.0015
16 | C123L | 0.05589 ± 0.00026 | 0.0566 ± 0.0018 | 0.0542 ± 0.0021
17 | C123K | 0.0592 ± 0.0039 | 0.0597 ± 0.001 | 0.0574 ± 0.0029
18 | C123W | 0.0575 ± 0.001 | 0.05919 ± 0.00026 | 0.0546 ± 0.0026
19 | C123P | 0.0559 ± 0.00078 | 0.05772 ± 0.00026 | 0.0526 ± 0.00078
20 | C123G | 0.0535 ± 0.001 | 0.0552 ± 0.0013 | 0.0502 ± 0.0015
21 | C123Y | 0.0586 ± 0.0015 | 0.0579 | 0.0546 ± 0.0026
22 | C123T | 0.0586 ± 0.0021 | 0.0572 ± 0.0015 | 0.0568 ± 0.0036
23 | C123R | 0.0599 ± 0.0023 | 0.061 ± 0.00078 | 0.0574 ± 0.0044

Row | Variant | sfGFP reporter fluorescence [1] | sfGFP reporter fluorescence ([2]; ligand: 1 µM Pb) | sfGFP reporter fluorescence ([2]; ligand: 30 µM Zn)
24 | C123H | 0.0588 ± 0.0018 | 0.05901 ± 0.00052 | 0.0561 ± 0.0021
25 | C123V | 0.05589 ± 0.00026 | 0.0579 ± 0.0015 | 0.0541 ± 0.0018
26 | C123Q | 0.0585 ± 0.00078 | 0.05809 ± 0.00026 | 0.0546 ± 0.0015
27 | C123S | 0.0575 ± 0.0021 | 0.0575 ± 0.001 | 0.0552 ± 0.0018
28 | C123M | 0.057 ± 0.0013 | 0.0577 ± 0.00078 | 0.0544 ± 0.0034
29 | C123N | 0.0599 ± 0.0018 | 0.0561 ± 0.0015 | 0.05498 ± 0.00052
30 | C123I | 0.05479 ± 0.00026 | 0.0553 ± 0.001 | 0.0517 ± 0.0021
31 | C123D | 0.0577 ± 0.0039 | 0.0586 | 0.0564 ± 0.0031
32 | C123A | 0.0575 ± 0.001 | 0.0553 | 0.0533 ± 0.00078
33 | C123E | 0.0583 ± 0.001 | 0.0588 ± 0.00078 | 0.0557 ± 0.001
34 | E112I | 0.0542 ± 0.0015 | 0.06175 ± 0.00026 | 0.282 ± 0.021
35 | E112K | 0.0706 ± 0.00078 | 0.1164 ± 0.00078 | 2.4 ± 0.25
36 | E112V | 0.0572 ± 0.0015 | 0.06597 ± 0.00052 | 0.343 ± 0.0078
37 | E112F | 0.0575 ± 0.0026 | 0.0647 ± 0.0023 | 0.24 ± 0.012
38 | E112P | 0.0557 ± 0.001 | 0.057 ± 0.00078 | 0.0561
39 | E112R | 0.0658 ± 0.00078 | 0.107 ± 0.0088 | 1.53 ± 0.029
40 | E112Q | 0.0627 ± 0.0015 | 0.0909 ± 0.0078 | 1.27 ± 0.082
41 | E112C | 0.0616 ± 0.001 | 0.0759 ± 0.0036 | 0.1508 ± 0.0013
42 | E112T | 0.0605 | 0.0804 ± 0.0029 | 0.857 ± 0.06
43 | E112S | 0.0673 ± 0.00078 | 0.1083 ± 0.00078 | 1.9 ± 0.14
44 | E112M | 0.06212 ± 0.00026 | 0.0938 ± 0.0093 | 0.9465 ± 0.007
45 | E112L | 0.0603 ± 0.00078 | 0.0867 ± 0.0034 | 0.851 ± 0.048
46 | E112N | 0.06212 ± 0.00026 | 0.079 ± 0.0029 | 1.04 ± 0.13

Row | Variant | sfGFP reporter fluorescence [1] | sfGFP reporter fluorescence ([2]; ligand: 1 µM Pb) | sfGFP reporter fluorescence ([2]; ligand: 30 µM Zn)
47 | E112W | 0.0579 ± 0.0015 | 0.0627 ± 0.001 | 0.152 ± 0.014
48 | E112G | 0.0586 ± 0.0026 | 0.0847 ± 0.0042 | 1.23 ± 0.12
49 | E112H | 0.05882 ± 0.00026 | 0.077 ± 0.0057 | 0.424 ± 0.012
50 | E112A | 0.063 ± 0.0021 | 0.0929 ± 0.0039 | 1.31 ± 0.092
51 | E112D | 0.0612 ± 0.0021 | 0.0722 ± 0.0026 | 0.565 ± 0.043
52 | E112Y | 0.05919 ± 0.00026 | 0.06395 ± 0.00026 | 0.198 ± 0.028
53 | S122A | 0.06249 ± 0.00026 | 0.0762 ± 0.0015 | 0.687 ± 0.05
54 | P119A | 0.05992 ± 0.00026 | 0.0629 ± 0.0029 | 0.477 ± 0.05
55 | Q121A | 0.0645 ± 0.001 | 0.0944 ± 0.0023 | 1.16 ± 0.19
56 | L107V | 0.0854 ± 0.001 | 0.19 ± 0.022 | 2.03 ± 0.021
57 | L107N | 0.0546 ± 0.0047 | 0.0759 ± 0.0015 | 0.511 ± 0.027
58 | L107K | 0.0561 ± 0.0057 | 0.05864 ± 0.00052 | 0.0861 ± 0.0026
59 | L107G | 0.05956 ± 0.00026 | 0.0836 ± 0.0036 | 0.4444 ± 0.0044
60 | L107R | 0.059 ± 0.001 | 0.055 ± 0.0021 | 0.0781 ± 0.0031
61 | L107T | 0.0797 ± 0.0054 | 0.282 ± 0.015 | 1.93 ± 0.22
62 | L107Q | 0.0579 ± 0.0047 | 0.08521 ± 0.00078 | 0.764 ± 0.047
63 | L107H | 0.05662 ± 0.00026 | 0.0535 ± 0.0021 | 0.0821 ± 0.0015
64 | L107Y | 0.0603 ± 0.0013 | 0.06762 ± 0.00026 | 0.209 ± 0.0091
65 | L107F | 0.0528 ± 0.0015 | 0.0495 ± 0.0021 | 0.0636 ± 0.0039
66 | L107M | 0.0546 ± 0.0015 | 0.0605 ± 0.0026 | 0.371 ± 0.046
67 | L107P | 0.0568 ± 0.0015 | 0.0528 ± 0.0052 | 0.0621 ± 0.0018
68 | L107S | 0.12 ± 0.0091 | 0.5454 ± 0.0042 | 2.27 ± 0.042
69 | L107W | 0.0599 ± 0.0013 | 0.0638 | 0.118 ± 0.0013

Row | Variant | sfGFP reporter fluorescence [1] | sfGFP reporter fluorescence ([2]; ligand: 1 µM Pb) | sfGFP reporter fluorescence ([2]; ligand: 30 µM Zn)
70 | L107I | 0.0579 ± 0.001 | 0.0671 ± 0.0036 | 0.808 ± 0.065
71 | L110S | 0.05626 ± 0.00026 | 0.05772 ± 0.00026 | 0.0614 ± 0.0018
72 | L110T | 0.05736 ± 0.00026 | 0.0601 ± 0.001 | 0.158 ± 0.0029
73 | L110Q | 0.0555 ± 0.0013 | 0.057 ± 0.00078 | 0.05589 ± 0.00026
74 | L110F | 0.05626 ± 0.00026 | 0.0599 ± 0.0018 | 0.0619 ± 0.0021
75 | L110V | 0.0601 ± 0.0021 | 0.06634 ± 0.00052 | 0.502 ± 0.065
76 | L110N | 0.0579 | 0.05791 ± 0.00052 | 0.0627
77 | L110H | 0.0638 ± 0.0021 | 0.081 ± 0.0042 | 2.52 ± 0.29
78 | L110K | 0.05772 ± 0.00026 | 0.05864 ± 0.00052 | 0.0792 ± 0.0021
79 | L110M | 0.0568 ± 0.0015 | 0.05644 ± 0.00052 | 0.0574 ± 0.0023
80 | L110P | 0.0594 ± 0.0015 | 0.0581 ± 0.0018 | 0.0575 ± 0.0015
81 | L110W | 0.057 ± 0.0018 | 0.0572 ± 0.0015 | 0.0537 ± 0.0023
82 | L110D | 0.0575 ± 0.0015 | 0.0586 | 0.0574 ± 0.00078
83 | L110G | 0.05498 ± 0.00052 | 0.0548 ± 0.00078 | 0.0531 ± 0.0031
84 | L110Y | 0.0581 ± 0.00078 | 0.0597 | 0.0656 ± 0.001
85 | L110A | 0.0727 ± 0.0013 | 0.0698 ± 0.0018 | 0.0729 ± 0.0026
86 | L110C | 0.05754 ± 0.00052 | 0.0577 ± 0.00078 | 0.0766 ± 0.0042
87 | L110R | 0.0579 ± 0.0015 | 0.0596 ± 0.00078 | 0.06615 ± 0.00026
88 | L110I | 0.05571 ± 0.00052 | 0.0579 ± 0.0015 | 0.542 ± 0.036
89 | L110E | 0.059 ± 0.001 | 0.0614 ± 0.0013 | 0.0579 ± 0.001
